B1: HDV Ribozyme (parent)
chain: GGCCGGCAUGGUCCCAGCCUCCUCGCUGGCGCCGGCUGGGCAACAUUCCGAGGGGACCGUCCCCUCGGUAAUGGCGAAUGGGACCCA

Variants of: B1
Test: self-cleavage, relative activity (ratio to wild type); higher = more cleavage; co-transcriptional

Variant	self-cleavage
GGCCGGCAUGGUCCCAGCCUCCUCGCUGGCGCUGGCUGGGCAACAUUGCGAGGGGACCGUCCCCUCGGUAAUGGCGAAUGGGACCCA	1.05
GGCCGGCAUGGUCCCAGCCUCCUCGCUGGCGCUGGCUGGGCAACAUUUCGAGGGGACCGUCCCCUCGGUAAUGGCGAAUGGGACCCA	0.847
GGCCGGCAUGGUCCCAGCCUCCUCGCUGGCGCUGGCUGGGCAACAUUCCGAGGGGACCGUCCCCUCGGUAAUGGCGAAUGGGACCCA	0.847
GGCCGGCAUGGUCCCAGCCUCCUCGCUGGCGCUGGCUCGGCAACAUUCCGAGGGGACCGUCCCCUCGGUAAUGGCGAAUGGGACCCA	0.125
GGCCGGCAUGGUCCCAGCCUCCUCGCUGGCGCUGGCUUGGCAACAUUCCGAGGGGACCGUCCCCUCGGUAAUGGCGAAUGGGACCCA	0.0978
GGCCGGCAUGGUCCCAGCCUCCUCGCUGGCGCUGGCUGGGCAACAUUCCGAGGGGACCGUCCGCUCGGUAAUGGCGAAUGGGACCCA	0.698
GGCCGGCAUGGUCCCAGCCUCCUCGCUGGCGCUGGGUGGGCAACAUUCCGAGGGGACCGUCCCCUCGGUAAUGGCGAAUGGGACCCA	0.0665
GGCCGGCAUGGUCCCAGCCUCCUCGCUGGCGCUGGCUGGGCAACAUUCCGAGGGGACCGUCCCCUCGGUAAUGGCGAUUGGGACCCA	0.378
GGCCGGCAUGGUCCCAGCCUCCUCGCUGGCGCUGGCUGGGCAACAUUCCGAGGGGACCGUCCCCUCGGUAAUGGAGAAUGGGACCCA	0.0923
GGCCGGCAUGGUCCCAGCCUCCUCGCUGGCGCUGGCUGGGCAACAUUCCGAGGGGACCGUCCCCUCGGUAAUGGCGAAUGGGACUCA	0.831
GGCCGGCAUGGUCCCAGCCUCCUCGCUGGCGCUGGCUGGGCAACAUUCCGAGGGGACCGUCCCCUCGGUAAUGGCGAAUGGGACACA	0.831
GGCCGGCAUGGUCCCAGCCUCCUCGCUGGCGCUGGCUGGGCAACAGUCCGAGGGGACCGUCCCCUCGGUAAUGGCGAAUGGGACCCA	0.65
GGCCGGCAUGGUCCCAGCCUCCUCGCUGGCGCUGGCUGGGCAACAUUCCGAGGGGACCGUCCCUUCGGUAAUGGCGAAUGGGACCCA	0.785
GGCCGGCAUGGUCCCAGCCUCCUCGCUGGCGCUGGCUGGGCAACAUUCCGAGGGGACCGUCCCAUCGGUAAUGGCGAAUGGGACCCA	0.591
GGCCGGCAUGGUCCCAGCCUCCUCGCUGGCGCUGGCUGGGCAACAUUCCUAGGGGACCGUCCCCUCGGUAAUGGCGAAUGGGACCCA	0.92
GGCCGGCAUGGUCCCAGCCUCCUCGCUGGCGCUGGCUGGGCAACAUUCCGAGGGGACCGUCCCCUCGGUAAUGGCGUAUGGGACCCA	0.439
GGCCGGCAUGGUCCCAGCCUCCUCGCUGGCGCUGGCUGGGCAACAUUCCGAGGGGACCGUCCCCUCGGUAAUGGCGGAUGGGACCCA	0.554
GGCCGGCAUGGUCCCAGCCUCCUCGCUGGCGCUGGCUGGGCAACAUUCCGCGGGGACCGUCCCCUCGGUAAUGGCGAAUGGGACCCA	1.3
GGCCGGCAUGGUCCCAGCCUCCUCGCUGGCGCUGGCUGGGCAACAUUCCGUGGGGACCGUCCCCUCGGUAAUGGCGAAUGGGACCCA	0.848
GGCCGGCAUGGUCCCAGCCUCCUCGCUGGCGCUGGCUGGGCAACAUUCCGAGGGGCCCGUCCCCUCGGUAAUGGCGAAUGGGACCCA	0.658
GGCCGGCAUGGUCCCAGCCUCCUCGCUGGCGCUGGCUGGGCAACAUUCCGAGGGGGCCGUCCCCUCGGUAAUGGCGAAUGGGACCCA	0.665
GGCCGGCAUGGUCCCAGCCUCCUCGCUGGCGCUGGCUGGGCAACAUUCCGAGGGGACCGUCCCCUCGGUUAUGGCGAAUGGGACCCA	0.755

Variant	self-cleavage
GGCCGGCAUGGUCCCAGCCUCCUCGCUGGCGCUGGCUGGGCAACAUUCCGAGGGGACCGUCCCCUCGGUCAUGGCGAAUGGGACCCA	0.931
GGCCGGCAUGGUCCCAGCCUCCUCGCUGGCGCUGGCUGGGCAACAUUCCGAGGGGACCGUCCCCUCGGUAUUGGCGAAUGGGACCCA	0.65
GGCCGGCAUGGUCCCAGCCUCCUCGCUGGCGCUGGCUGGGCAACAUUCCGAGGGGACCGUCCCCUCGGUACUGGCGAAUGGGACCCA	0.374
GGCCGGCAUGGUCCCAGCCUCCUCGCUGGCGCUGGCUGCGCAACAUUCCGAGGGGACCGUCCCCUCGGUAAUGGCGAAUGGGACCCA	0
GGCCGGCAUGGUCCCAGCCUCCUCGCUGGCGCUGGCUGUGCAACAUUCCGAGGGGACCGUCCCCUCGGUAAUGGCGAAUGGGACCCA	0.58
GGCCGGCAUGGUCCCAGCCUCCUCGCUGGCGCUGGCUGGGCAACAUUCCGAGGGGACCGUUCCCUCGGUAAUGGCGAAUGGGACCCA	0.918
GGCCGGCAUGGUCCCAGCCUCCUCGCUGGCGCUGGCUGGGCAACAUUCCGAGGGGACCGUGCCCUCGGUAAUGGCGAAUGGGACCCA	0.831
GGCCGGCAUGGUCCCAGCCUCCUCGCUGGCGCUGGCUGGGCAACAUACCGAGGGGACCGUCCCCUCGGUAAUGGCGAAUGGGACCCA	0.872
GGCCGGCAUGGUCCCAGCCUCCUCGCUGGCGCUGGCUGGGCAACAUCCCGAGGGGACCGUCCCCUCGGUAAUGGCGAAUGGGACCCA	0.682
GGCCGGCAUGGUCCCAGCCUCCUCGCUGGCGCUGGCUGGGCACCAUUCCGAGGGGACCGUCCCCUCGGUAAUGGCGAAUGGGACCCA	0.248
GGCCGGCAUGGUCCCAGCCUCCUCGCUGGCGCUGGCUGGGCAUCAUUCCGAGGGGACCGUCCCCUCGGUAAUGGCGAAUGGGACCCA	0.356
GGCCGGCAUGGUCCCAGCCUCCUCGCUGGCGCUGGCUGGGCAGCAUUCCGAGGGGACCGUCCCCUCGGUAAUGGCGAAUGGGACCCA	0.227
GGCCGGCAUGGUCCCAGCCUCCUCGCUGGCGCUGGCUGGGCAACCUUCCGAGGGGACCGUCCCCUCGGUAAUGGCGAAUGGGACCCA	0.494
GGCCGGCAUGGUCCCAGCCUCCUCGCUGGCGCUGGCUGGGCAACGUUCCGAGGGGACCGUCCCCUCGGUAAUGGCGAAUGGGACCCA	0.886
GGCCGGCAUGGUCCCAGCCUCCUCGCUGGCGCUAGCUGGGCAACAUUCCGAGGGGACCGUCCCCUCGGUAAUGGCGAAUGGGACCCA	0.293
GGCCGGCAUGGUCCCAGCCUCCUCGCUGGCGCUCGCUGGGCAACAUUCCGAGGGGACCGUCCCCUCGGUAAUGGCGAAUGGGACCCA	0.0978
GGCCGGCAUGGUCCCAGCCUCCUCGCUGGCGCUGGCUGGGCAACAUUCCGAGGGGACCGUCCCCUCGGUAAUGACGAAUGGGACCCA	0.277
GGCCGGCAUGGUCCCAGCCUCCUCGCUGGCGCUGGCUGGGCAACAUUCCGAGGGGACCGUCCCCUCGGUAAUGGCGAAUGCGACCCA	0.119
GGCCGGCAUGGUCCCAGCCUCCUCGCUGGCGCUGGCUGGGCAACAUUCCGAGGGGACCGUCCCCUCCGUAAUGGCGAAUGGGACCCA	0.771
GGCCGGCAUGGUCCCAGCCUCCUCGCUGGCGCUGGCUGGGCAACAUUCCGAGGGGACCGUCCCCUCUGUAAUGGCGAAUGGGACCCA	0.816
GGCCGGCAUGGUCCCAGCCUCCUCGCUGGCGCUGGCUGGGCAACAUUCCGAGGGGACCGUCCCCUCGGUAAUGGCGAAUGGGAUCCA	0.479
GGCCGGCAUGGUCCCAGCCUCCUCGCUGGCGCUGGCUGGGCAACAUUCCGAGGGGACCGUCCCCUCGGUAAUGGCGAAUGGGAACCA	0.65

Variant	self-cleavage
GGCCGGCAUGGUCCCAGCCUCCUCGCUGGCGCUGGCUGGGCAACAUUCCGAGGGGACCGUCCCCUCGGUAAUGGCGAAUGGGAGCCA	0.628
GGCCGGCAUGGUCCCAGCCUCCUCGCUGGCGCUGGCUGGGUAACAUUCCGAGGGGACCGUCCCCUCGGUAAUGGCGAAUGGGACCCA	0.646
GGCCGGCAUGGUCCCAGCCUCCUCGCUGGCGCUGGCUGGGAAACAUUCCGAGGGGACCGUCCCCUCGGUAAUGGCGAAUGGGACCCA	0.7
GGCCGGCAUGGUCCCAGCCUCCUCGCUGGCGCUGGCUGGGCAAUAUUCCGAGGGGACCGUCCCCUCGGUAAUGGCGAAUGGGACCCA	0.543
GGCCGGCAUGGUCCCAGCCUCCUCGCUGGCGCUGGCUGGGCAACAUUCCGAGGGGACCAUCCCCUCGGUAAUGGCGAAUGGGACCCA	0.897
GGCCGGCAUGGUCCCAGCCUCCUCGCUGGCGCGGGCUGGGCAACAUUCCGAGGGGACCGUCCCCUCGGCAAUGGCGAAUGGGACCCA	0.277
GGCCGGCAUGGUCCCAGCCUCCUCGCUGGCGCGGGCUGGGCAACAUUCCGAGGGGACCGUCCCCUCGGAAAUGGCGAAUGGGACCCA	0.201
GGCCGGCAUGGUCCCAGCCUCCUCGCUGGCGCUGGCAGGGCAACAUUCCGAGGGGACCGUCCCCUCGGUAAUGGCGAAUGGGACCCA	0.17
GGCCGGCAUGGUCCCAGCCUCCUCGCUGGCGCUGGCGGGGCAACAUUCCGAGGGGACCGUCCCCUCGGUAAUGGCGAAUGGGACCCA	0.0462
GGCCGGCAUGGUCCCAGCCUCCUCGCUGGCGCUGGCUGGGCAACAUUCCGAGGGGACCGUCCCCUCGGUAAUGGCGAAUCGGACCCA	0.143
GGCCGGCAUGGUCCCAGCCUCCUCGCUGGCGCUGGCUGGCCAACAUUCCGAGGGGACCGUCCCCUCGGUAAUGGCGAAUGGGACCCA	0.286
GGCCGGCAUGGUCCCAGCCUCCUCGCUGGCGCUGGCUGGACAACAUUCCGAGGGGACCGUCCCCUCGGUAAUGGCGAAUGGGACCCA	1.06
GGCCGGCAUGGUCCCAGCCUCCUCGCUGGCGCUGGCUGGGCAACAUUCCGACGGGACCGUCCCCUCGGUAAUGGCGAAUGGGACCCA	0.596
GGCCGGCAUGGUCCCAGCCUCCUCGCUGGCGCUGGCUGGGCAACAUUCCGAGGGGACCGUCCCCUCGGUAAUGGCGAAUGGCACCCA	0.245
GGCCGGCAUGGUCCCAGCCUCCUCGCUGGCGCUGGCUGGGCGACAUUCCGAGGGGACCGUCCCCUCGGUAAUGGCGAAUGGGACCCA	0.427
GGCCGGCAUGGUCCCAGCCUCCUCGCUGGCGCUGGCUGGGCCACAUUCCGAGGGGACCGUCCCCUCGGUAAUGGCGAAUGGGACCCA	0.259
GGCCGGCAUGGUCCCAGCCUCCUCGCUGGCGCUGGCUGGGCAACAUUCCGAGGGGACGGUCCCCUCGGUAAUGGCGAAUGGGACCCA	0.929
GGCCGGCAUGGUCCCAGCCUCCUCGCUGGCGCUGGCUGGGCAACAUUCCGAGGGGACUGUCCCCUCGGUAAUGGCGAAUGGGACCCA	0.917
GGCCGGCAUGGUCCCAGCCUCCUCGCUGGCGCUGGCUGGGCAACAUUCUGAGGGGACCGUCCCCUCGGUAAUGGCGAAUGGGACCCA	1.06
GGCCGGCAUGGUCCCAGCCUCCUCGCUGGCGCUGGCUGGGCAACAUUCCGAGGGAACCGUCCCCUCGGUAAUGGCGAAUGGGACCCA	0.972

Reference: the RNAGym collection of RNA variant scans (doi:10.7554/elife.80360)
